Results on one molecule are retold here after article PMC10773802, “Electrochemical aptasensor fabricated by anchoring recognition aptamers and immobilizing redox probes on bipolar silica nanochannel array for reagentless detection of carbohydrate antigen 15-3”.

For the data set, the target named is carbohydrate antigen 15-3 (CA15-3) (UniProt P15941 24-1097). Nature of the data set: electrochemical aptasensor (DPV, CV, EIS); aptamer immobilized on bp-SNA/ITO with Co(bpy)3 2+ probe, BSA-blocked; linear 0.001-500 U/mL, LOD 0.13 mU/mL (not a Kd); 0.01 M PBS (sodium phosphate), pH 7.4; CA15-3 incubation 80 min at 4 °C; BSA-blocked electrode (0.1 wt%). The following applies: protein: commercial.
carbohydrate antigen 15-3 (CA15-3), sequence (P15941 24-1097): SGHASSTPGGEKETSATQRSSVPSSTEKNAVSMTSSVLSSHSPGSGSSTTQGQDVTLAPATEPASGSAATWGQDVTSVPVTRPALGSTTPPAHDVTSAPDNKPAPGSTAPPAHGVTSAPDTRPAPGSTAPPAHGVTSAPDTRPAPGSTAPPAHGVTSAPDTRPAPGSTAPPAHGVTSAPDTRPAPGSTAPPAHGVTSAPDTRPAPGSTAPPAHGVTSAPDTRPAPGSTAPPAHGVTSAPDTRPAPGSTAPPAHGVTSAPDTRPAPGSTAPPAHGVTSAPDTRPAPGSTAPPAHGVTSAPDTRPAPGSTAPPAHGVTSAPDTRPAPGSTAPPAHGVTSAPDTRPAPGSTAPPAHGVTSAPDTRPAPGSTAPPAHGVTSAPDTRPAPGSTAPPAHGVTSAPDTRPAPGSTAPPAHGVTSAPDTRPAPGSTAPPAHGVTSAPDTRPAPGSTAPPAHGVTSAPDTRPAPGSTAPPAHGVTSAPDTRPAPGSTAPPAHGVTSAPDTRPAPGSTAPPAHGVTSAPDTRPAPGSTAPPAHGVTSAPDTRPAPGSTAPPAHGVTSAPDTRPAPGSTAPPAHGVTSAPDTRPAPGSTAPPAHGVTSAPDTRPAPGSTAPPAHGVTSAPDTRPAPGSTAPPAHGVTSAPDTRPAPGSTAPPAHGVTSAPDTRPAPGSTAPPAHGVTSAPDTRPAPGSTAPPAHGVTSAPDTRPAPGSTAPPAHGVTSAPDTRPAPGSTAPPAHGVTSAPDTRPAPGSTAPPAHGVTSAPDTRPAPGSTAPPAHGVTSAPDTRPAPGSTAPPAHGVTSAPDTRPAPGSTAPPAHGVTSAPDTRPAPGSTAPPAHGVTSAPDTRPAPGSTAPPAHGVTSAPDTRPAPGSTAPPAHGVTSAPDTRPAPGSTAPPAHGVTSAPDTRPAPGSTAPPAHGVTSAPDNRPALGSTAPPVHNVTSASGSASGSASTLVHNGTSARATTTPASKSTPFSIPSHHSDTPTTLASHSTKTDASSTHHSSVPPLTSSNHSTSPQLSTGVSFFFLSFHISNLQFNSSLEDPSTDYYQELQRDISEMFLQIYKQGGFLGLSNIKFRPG

On to CTTCCTCCCTGAAGTGAATATGACAGATCACAACTTCCCTCCTTC (ssDNA, 5'-NH2) [CA15-3 aptamer (amino-modified)], for which the binding result is “binds”.
